Tests used:
[1] = target: the molecule itself; test: SEC-MALS; 1 mg/mL protein injected on Superdex 200 Increase 10/300 GL at 10 °C; 20 mM TRIS, 300 mM NaCl, 1 mM DTT, pH 8.0; with 25 mM CaCl2; stoichiometric ratio = MALS molecular weight / theoretical monomer mass
[2] = target: the molecule itself; test: SEC-MALS; 1 mg/mL protein injected on Superdex 200 Increase 10/300 GL at 10 °C; 20 mM TRIS, 300 mM NaCl, 1 mM DTT, pH 8.0; without CaCl2; stoichiometric ratio = MALS molecular weight / theoretical monomer mass

B1: STIM1-2β-OASF (STIM1-OASF mutated to contain the VAASYLIQ (2β) insertion after G379) (domain or fragment, human, UniProt Q13586-1 234-491, looked up)
chain: NRYSKEHMKKMMKDLEGLHRAEQSLHDLQERLHKAQEEHRTVEVEKVHLEKKLRDEINLAKQEAQRLKELREGTENERSRQKYAEEELEQVREALRKAEKELESHSSWYAPEALQKWLQLTHEVEVQYYNIKKQNAEKQLLVAKEGVAASYLIQAEKIKKKRNTLFGTFHVAHSSSLDDVDHKILTAKQALSEVTAALRERLHRWQQIEILCGFQIVNNPGIHSLVAALNIDPSWMGSTRPNPAHFIMTDDVDDMDEEIVSPLSMQ
notes: Made by PCR-mediated site-directed mutagenesis of pET-28a-STIM1-OASF; A few vector residues probably remain after thrombin cleavage (surmise); source: E. coli BL21 (DE3), purified under denaturing conditions (guanidine-HCl, nickel-NTA), renatured, thrombin-cleaved, SEC
stoichiometry N [1]: 1.96
stoichiometry N [2]: 2.02
